± gives the standard error. For part of these data: Variants at the floor of the assay were thinned out.
B1: glmS ribozyme (parent)
chain: AUAAAAGCGCCAGAACUACAGAAAUGUAGUUGACGAGGAGGAGGUUUAUCGAAUUUUCGGCGGAUGCCUCCAAA

Key:
Conditions in all cases: with glucosamine-6-phosphate
[1] = variants of: B1; assay: kcat; higher = faster cleavage; RNA array
Outline: (§1)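 A hybridised Cy3 probe tracked barcoded ribozyme variants, transcribed in situ by E. coli RNA polymerase on sequenced MiSeq chips, at 37 °C. The variants received 40 μM to 10 mM glucosamine-6-phosphate in HEPES/KCl/Mg(OAc)2 buffer. kobs came from decay fits and kcat and KM from weighted Michaelis–Menten fits.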

[2] = variants of: B1; assay: self-cleavage kobs at 40 uM GlcN6P; higher = faster cleavage; RNA array
Outline: as §1

[3] = variants of: B1; assay: self-cleavage kobs at 640 uM GlcN6P; higher = faster cleavage; RNA array
Outline: as §1

[4] = variants of: B1; assay: self-cleavage kobs at 2500 uM GlcN6P; higher = faster cleavage; RNA array
Outline: as §1

[5] = variants of: B1; assay: self-cleavage kobs at 10000 uM GlcN6P; higher = faster cleavage; RNA array
Outline: as §1

[6] = variants of: B1; assay: KM; higher = weaker cofactor use; RNA array
Outline: as §1

[7] = variants of: B1; assay: self-cleavage kobs at 160 uM GlcN6P; higher = faster cleavage; RNA array
Outline: as §1

Row | Variant | kcat [1] [s⁻¹] | self-cleavage kobs at 40 uM GlcN6P [2] [s⁻¹] | self-cleavage kobs at 640 uM GlcN6P [3] [s⁻¹] | self-cleavage kobs at 2500 uM GlcN6P [4] [s⁻¹] | self-cleavage kobs at 10000 uM GlcN6P [5] [s⁻¹] | KM [6] [µM] | self-cleavage kobs at 160 uM GlcN6P [7] [s⁻¹]
1 | U46G G66A C70G | 0.000845 ± 0.00032 | 6.36e-05 ± 1.7e-05 | 0.000267 ± 6.1e-05 | 0.00046 ± 0.00016 | 0.000907 ± 0.00016 |  | 
2 | U31A A39C | 0.00192 ± 0.00067 | 5.43e-05 ± 7.8e-06 | 0.000525 ± 4.9e-05 | 0.000973 ± 0.00011 | 0.00166 ± 0.0003 | 2120 ± 1000 | 0.000105 ± 1.4e-05
3 | G40U A53G | 0.00428 ± 0.0018 | 0.00024 ± 5.5e-05 | 0.00118 ± 0.00028 | 0.00316 ± 0.00063 | 0.0062 ± 0.0017 |  | 0.000703 ± 0.0002
4 | A48G A53G | 0.00014 ± 3.1e-05 |  |  | 8.53e-05 ± 1.3e-05 | 0.000105 ± 1.2e-05 |  | 
5 | G13A G41U | 5.73e-05 ± 8.7e-06 | < 1e-05 |  |  |  |  | 
6 | G41U U65A | 0.000223 ± 4.3e-05 |  | 8.03e-05 ± 8.5e-06 | 0.000238 ± 3.1e-05 | 0.000183 ± 2e-05 | 1090 ± 470 | 
7 | G37A G38U | < 1e-05 |  |  |  |  |  | < 1e-05
8 | C16U A64G | 0.018 ± 0.0074 | 0.000665 ± 7.5e-05 | 0.00457 ± 0.00072 | 0.0111 ± 0.0028 | 0.0176 ± 0.0031 |  | 0.00126 ± 0.00023
9 | A33U C71A | 4.74e-05 ± 6.5e-07 | < 1e-05 |  | 3.52e-05 ± 8.5e-06 | 4.32e-05 ± 6.2e-06 | 919 ± 65 | 
10 | U46G C67U | 0.00338 ± 0.0012 | 0.000125 ± 1.7e-05 | 0.00143 ± 0.00015 | 0.00176 ± 0.00028 | 0.00457 ± 0.00079 | 1200 ± 590 | 0.000317 ± 5.3e-05
11 | U65A G66U | 0.00046 ± 4.8e-05 |  | 7.65e-05 ± 9.6e-06 | 0.00023 ± 3.3e-05 | 0.000342 ± 3.1e-05 | 3170 ± 620 | 
12 | U31A C71A | 0.00261 ± 0.001 | 8.13e-05 ± 2.1e-05 | 0.00049 ± 0.00015 | 0.00162 ± 0.00035 | 0.00252 ± 0.00057 |  | 0.000449 ± 0.00013
13 | G51U C71G | 1.29e-05 ± 2.7e-06 |  |  |  |  |  | 
14 | C50A C68A | 3.68e-05 ± 1.1e-05 |  |  | 4.65e-05 ± 1.7e-05 |  |  | 3.75e-05 ± 1.4e-05
15 | U46G U47G | 0.00226 ± 0.00039 | 6.82e-05 ± 2e-05 | 0.000551 ± 0.00016 | 0.00191 ± 0.00051 | 0.00188 ± 0.00039 | 1530 ± 410 | 0.000208 ± 5.4e-05
16 | G60A G63C | < 1e-05 |  |  | < 1e-05 | < 1e-05 |  | < 1e-05
17 | U49G C71A | 0.000155 ± 8.2e-06 |  | 5.22e-05 ± 1.8e-05 | 8.83e-05 ± 2.5e-05 | 0.000137 ± 1.9e-05 | 1460 ± 260 | 
18 | A39C G40C | 0.000145 ± 1.6e-06 |  | 4.2e-05 ± 9e-06 | 8.75e-05 ± 1.8e-05 | 0.000126 ± 1.5e-05 | 1590 ± 47 | 
19 | A14U A52G | 0.00038 ± 0.0001 |  | 7.16e-05 ± 1e-05 | 0.000166 ± 1.6e-05 | 0.000325 ± 4.4e-05 | 2840 ± 1300 | 5.44e-05 ± 1.7e-05
20 | G32U A42C G51C C67U | 1.49e-05 ± 6.1e-07 |  |  |  |  | 3620 ± 380 | 
21 | A12C A39G | 0.0192 ± 0.0069 | 0.000367 ± 4.7e-05 | 0.00513 ± 0.0012 | 0.00799 ± 0.0015 | 0.0245 ± 0.0049 | 2230 ± 1000 | 0.00113 ± 0.00026
22 | G63C C67G | < 1e-05 | < 1e-05 |  |  |  |  | 
23 | G59A C68G | 1.72e-05 ± 2.3e-06 |  |  |  |  |  | 
24 | G40A C70A | 0.000241 ± 1.6e-05 | 2.59e-05 ± 1.2e-05 | 0.000163 ± 2.5e-05 | 0.000235 ± 4.9e-05 | 0.000217 ± 3.8e-05 | 350 ± 60 | 6.86e-05 ± 1.9e-05
25 | C58G C67G C70G | 5.76e-05 ± 2.6e-05 |  | 6.3e-05 ± 2.3e-05 | 8.09e-05 ± 3e-05 |  |  | 
26 | G9U C11A | < 1e-05 | < 1e-05 | < 1e-05 |  |  | 159 ± 62 | < 1e-05
27 | A14C U49G | 0.000151 ± 5.2e-06 |  |  |  | 9.07e-05 ± 1.3e-05 | 6690 ± 570 | 
28 | C16U G66C | 0.000514 ± 9.1e-05 |  | 0.000282 ± 4e-05 | 0.000496 ± 7.3e-05 | 0.000398 ± 7.3e-05 | 657 ± 250 | 9.64e-05 ± 2.1e-05
29 | A12U U55G |  | 0.00298 ± 0.00031 | 0.0105 ± 0.0021 | 0.00928 ± 0.0023 | 0.119 ± 0.048 | 104 ± 42 | 0.00618 ± 0.0009

— the supplement of paper PMC7125110
